Data on four substances can be found in article PMC8622166.

Assay [1] concerns the target geranylgeranylated RAC1 (RAC1^GG) (human) (UniProt P63000). Put plainly: not stated.
Assay [2] concerns the target RAC1, RAC3, RHOG and RHOA. Description: stopped-flow fluorimetry; kon from kobs against increasing GDI concentrations mixed with 0.2 µM mdGDP-bound RHO GTPase; koff by displacement with excess unlabeled GDP-bound RHO protein; Kd = koff/kon; 25 °C, 30 mM Tris/HCl pH 7.5, 10 mM K2HPO4/KH2PO4 pH 7.5, 5 mM MgCl2, 3 mM DTT.
Assay [3] addresses geranylgeranylated RAC1 (RAC1^GG) (human) (UniProt P63000). The assay is described as above.
In assay [4] the target is RAC1^ΔC10 (C-terminal truncated variant lacking HVR-CAAX) (human) (UniProt P63000). Put plainly: fluorescence polarisation; increasing GDI1 (variants) titrated to 0.2 µM mdGDP-bound RHO protein, 200 µL; 25 °C, 30 mM Tris/HCl pH 7.5, 10 mM K2HPO4/KH2PO4 pH 7.5, 5 mM MgCl2, 3 mM DTT; quadratic binding equation.
A further assay addresses RAC1 (Homo sapiens) (UniProt P63000). The note with it: cited from earlier work.
A further assay has as its target RHOA (Homo sapiens) (UniProt P61586). To be noted: cited from earlier work.
A further assay addresses CDC42 (Homo sapiens) (UniProt P60953). The note with it: cited from earlier work.
Assay [5] concerns the target non-isoprenylated RAC1 full-length (RAC1^FL) (human) (UniProt P63000). Put plainly: stopped-flow fluorimetry; kon from kobs against increasing GDI concentrations mixed with 0.2 µM mdGDP-bound RHO GTPase; koff by displacement with excess unlabeled GDP-bound RHO protein; Kd = koff/kon; 25 °C, 30 mM Tris/HCl pH 7.5, 10 mM K2HPO4/KH2PO4 pH 7.5, 5 mM MgCl2, 3 mM DTT.
Assay [6] shares this target. Description: fluorescence polarisation; increasing GDI1 (variants) titrated to 0.2 µM mdGDP-bound RHO protein, 200 µL; 25 °C, 30 mM Tris/HCl pH 7.5, 10 mM K2HPO4/KH2PO4 pH 7.5, 5 mM MgCl2, 3 mM DTT; quadratic binding equation.
The target is the same in assay [7]. Put plainly: stopped-flow fluorimetry; association (kobs) at one concentration: 2 µM GDI mixed with 0.2 µM mdGDP-bound RHO GTPase; 25 °C, 30 mM Tris/HCl pH 7.5, 10 mM K2HPO4/KH2PO4 pH 7.5, 5 mM MgCl2, 3 mM DTT.
For assay [8], the target named is geranylgeranylated RAC1 (RAC1^GG) (human) (UniProt P63000). The assay is described as above.

Bounds are passed on as bounds.

Sequence of RHOA (Homo sapiens) (P61586 1-190): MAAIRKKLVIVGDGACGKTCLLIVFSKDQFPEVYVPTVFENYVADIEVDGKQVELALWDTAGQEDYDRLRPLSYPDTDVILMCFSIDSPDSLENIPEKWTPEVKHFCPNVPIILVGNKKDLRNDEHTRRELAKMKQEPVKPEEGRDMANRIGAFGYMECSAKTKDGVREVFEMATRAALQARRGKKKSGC
Sequence of CDC42 (Homo sapiens) (P60953 1-188): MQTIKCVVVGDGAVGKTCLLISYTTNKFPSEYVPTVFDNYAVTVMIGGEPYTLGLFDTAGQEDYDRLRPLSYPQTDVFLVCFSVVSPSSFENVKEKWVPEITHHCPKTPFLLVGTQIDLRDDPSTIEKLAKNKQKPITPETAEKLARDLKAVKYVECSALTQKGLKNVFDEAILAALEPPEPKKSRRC

In assay [1], “GDI1 (RHOGDI1), wild type (from UniProt P52565 1-204) (natural protein)” registered a Kd of 180 nM and a fold lower Kd than for RAC1^FL of 2.5 to 4.6 fold. In [2], the Kd was 900 to 3200 nM. In assay [3], this substance yielded a fold difference of koff between RAC1^GG and RAC1^FL of 3 fold; a fold higher affinity than for RAC1^FL (Kd from koff/kon) of 7 fold. For the same substance, in assay [4], the fold lower affinity than for RAC1 was determined as 26 fold.

With GDI1 (from UniProt P52565), the Kd was 0.4 nM with RAC1 (Homo sapiens), 0.005 nM with RHOA (Homo sapiens) and 1.6 nM with CDC42 (Homo sapiens).

For the substance “GDI1^ΔC6 (from UniProt P52565 1-198) (domain or fragment)”, in assay [5], the fold difference in kon against GDI1 wt is more than 100 fold. The same substance registered a fold change of Kd against GDI1^WT in [6] of 140 fold. Besides, the fold slower association rate than GDI1^WT in assay [7] and in assay [8] was less than 24 fold each time.

The substance “GDI1^ΔN15 (from UniProt P52565 16-204) (domain or fragment)” came in with a fold difference in kon against GDI1 wt in assay [5] of more than 100 fold. In assay [6], this substance had a fold change of Kd against GDI1^WT of 440 fold. In addition, the fold slower association rate than GDI1^WT in [7] and in assay [8] was less than 24 fold throughout.
